Substitutions are numbered along the chain they refer to. Names and notes keep the numbering of the source.
T1: IL-2Rα on the surface of KIT225 or F15R-Kit cells (human, UniProt P01589 22-272)
T1 construct: whole, on cells; KIT225 cells also carry some IL-2Rβ and IL-2Rγ; also called IL-2 receptor α subunit; p55
T1 sequence (looked up): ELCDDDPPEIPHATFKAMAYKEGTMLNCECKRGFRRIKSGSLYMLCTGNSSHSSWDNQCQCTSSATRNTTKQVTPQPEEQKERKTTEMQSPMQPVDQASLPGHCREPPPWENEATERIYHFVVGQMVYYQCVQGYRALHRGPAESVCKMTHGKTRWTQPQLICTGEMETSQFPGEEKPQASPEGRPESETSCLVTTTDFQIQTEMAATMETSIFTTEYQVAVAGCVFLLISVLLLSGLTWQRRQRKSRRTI

T2: IL-2Rβ on YT-2C2 cells (human, UniProt P14784 27-551)
T2 construct: whole, on cells; YT-2C2 cells express about 20,000 IL-2Rβγ, so IL-2Rγ is also present; also called p75
T2 sequence (looked up): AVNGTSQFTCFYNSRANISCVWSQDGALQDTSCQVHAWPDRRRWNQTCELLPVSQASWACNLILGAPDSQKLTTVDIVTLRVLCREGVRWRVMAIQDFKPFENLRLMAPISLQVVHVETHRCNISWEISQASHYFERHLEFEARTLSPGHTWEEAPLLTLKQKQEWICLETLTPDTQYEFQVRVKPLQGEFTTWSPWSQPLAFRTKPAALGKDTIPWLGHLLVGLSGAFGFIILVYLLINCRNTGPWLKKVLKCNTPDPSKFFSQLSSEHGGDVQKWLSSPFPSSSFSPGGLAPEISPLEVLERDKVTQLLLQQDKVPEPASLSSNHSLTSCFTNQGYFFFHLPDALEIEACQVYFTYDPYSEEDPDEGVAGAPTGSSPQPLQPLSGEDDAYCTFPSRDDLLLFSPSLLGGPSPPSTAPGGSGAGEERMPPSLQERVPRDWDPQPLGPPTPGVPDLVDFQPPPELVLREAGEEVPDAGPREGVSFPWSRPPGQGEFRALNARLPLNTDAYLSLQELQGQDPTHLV

B1: IL-2 mutant M6 (V69A, Q74P, I128T) (ligand, not shown: small tags and cut ends)
chain: APTSSSTKKTQLQLEHLLLDLQMILNGINNYKNPKLTRMLTFKFYMPKKATELKHLQCLEEELKPLEEALNLAPSKNFHLRPRDLISNINVIVLELKGSETTFMCEYADETATIVEFLNRWITFSQSTISTLT
notes: Soluble form secreted from yeast
B2: IL-2 mutant WC9 (ligand, not shown: small tags and cut ends)
chain: B1 chain with S4P, T10A, Q11R, N88D, T128I, T133A
notes: also called N31610-18_
B3: IL-2 mutant 1a-1 (ligand, not shown: small tags and cut ends)
chain: B1 chain with N30S, E68D, N71A, S75P, K76R, N90H, T128I
notes: also called N31610-01_
B4: IL-2 mutant 1b-8 (ligand, not shown: small tags and cut ends)
chain: B1 chain with K8R, Q13R, N26D, N30T, K35R, T37R, I92T, T128I
notes: also called N31618-08_
B5: IL-2 mutant 2-4 (ligand, not shown: small tags and cut ends)
chain: B1 chain with N29S, Y31H, K35R, T37A, K48E, N71R, N88D, I89V, T128I
notes: also called N31618-14_; N31610-14_
B6: IL-2 mutant WE3 (ligand, not shown: small tags and cut ends)
chain: B1 chain with N30S
notes: also called N31610-25_

What follows are binders tested against T3, IL-15Rα on F15R-Kit cells (UniProt Q13261 31-267) (assay: flow cytometry on F15R-Kit cells).
T3 construct: whole, on cells
T3 sequence (Q13261 31-267, stated change not applied): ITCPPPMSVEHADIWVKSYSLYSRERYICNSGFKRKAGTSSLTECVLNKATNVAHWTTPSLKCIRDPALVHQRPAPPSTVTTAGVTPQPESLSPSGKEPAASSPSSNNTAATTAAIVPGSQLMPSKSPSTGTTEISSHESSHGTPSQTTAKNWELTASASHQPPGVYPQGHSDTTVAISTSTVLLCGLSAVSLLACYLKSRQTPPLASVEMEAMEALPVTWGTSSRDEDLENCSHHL

Row | Binder | binding result
1 | B1 | no binding
2 | B2 | no binding
3 | B3 | no binding
4 | B4 | no binding
5 | B5 | no binding
6 | B6 | no binding

Each binder was assayed against T1, IL-2Rα on the surface of KIT225 or … (assay: flow cytometry on KIT225 cells, 37 C, anti-FLAG detection).
Source text: Cells were washed with ice-cold PBS, pH 7.4, containing 0.1% bovine serum albumin (BSA) and labeled with a biotinylated antibody against the FLAG epitope followed by streptavidin-phycoerythrin on ice. We washed the cells again and determined mean single cell fluorescence using an EPICS-XL flow cytometer.

Row | Binder | Kd [nM]
7 | B1 | ~1

The binders below were run against T1, IL-2Rα on the surface of KIT225 or … (assay: flow cytometry on F15R-Kit cells, 30 min at 37 C, pH 7.4).
Procedure: (pH 7.4). Cell surface bound protein was measured using flow cytometry. Data from two different experiments (FIG. 12) were used to estimate Kd values.

Row | Binder | Kd [nM]
8 | B1 | 1.22
9 | B2 | 1.58
10 | B3 | 0.254
11 | B4 | 0.409
12 | B5 | 0.18
13 | B6 | 0.778

What follows are binders tested against T2, IL-2Rβ on YT-2C2 cells (assay: flow cytometry on YT-2C2 cells, on ice, anti-FLAG detection, global fit).

Row | Binder | Kd [nM]
14 | B1 | 210

Each binder was assayed against T1, IL-2Rα on the surface of KIT225 or … (assay: flow cytometry on KIT225 cells, 37 C; the reference value is cited from the literature).

Row | Binder | fold improvement in binding affinity relative to a wild-type Kd value of 28 nM (literature) [fold]
15 | B1 | ≥ 30
